Results as given in doi:10.1101/2020.06.27.175497, “Novel mode of filament formation in UPA-promoted CARD8 and NLRP1 Inflammasomes” (bioRxiv, 2020).

B1: ASC^CARD (106-195) W169G (domain or fragment, UniProt Q9ULZ3 106-195, looked up)
chain: SAAKPGLHFIDQHRAALIARVTNVEWLLDALYGKVLTDEQYQAVRAEPTNPSKMRKLFSFTPAGNWTCKDLLLQALRESQSYLVEDLERS
notes: ASC, CARD, residues 106-195; Stood in the experiment on one chain with caspase-1^CARD G20K through a 5 x GSS linker (fusion m9); also called type IIa W169G mutant of ASC^CARD; source: E. coli BL21 (DE3), purified (Ni-NTA, TEV cleavage, amylose flow-through, Superdex 200), as part of the fusion m9
B2: NLRP1^CARD (D1374-S1473, with G1463C) (domain or fragment, human, UniProt Q9C000-1 1374-1473, looked up)
chain: DAPQLLHFVDQYREQLIARVTSVEVVLDKLHGQVLSQEQYERVLAENTRPSQMRKLFSLSQSWDRKCKDGLYQALKETHPHLIMELWEKCSKKGLLPLSS
notes: NLRP1, human, CARD D1374-S1473, isoform 1 (Q9C000-1); G1463C (helix alpha6) was added for cysteine labelling in the constructs for in vitro analyses; The cleavage of the tag is described for the CARD8^CARD filament assay; also called CARD alone; WT CARD; source: E. coli BL21 (DE3), purified as monomeric MBP-CARD (amylose resin, Superdex 200), filaments formed in vitro
B3: ASC^CARD (106-195, W169G) - 5 x GSS linker - caspase-1^CARD (1-95, G20K) fusion protein (other)
chain: SAAKPGLHFIDQHRAALIARVTNVEWLLDALYGKVLTDEQYQAVRAEPTNPSKMRKLFSFTPAGNWTCKDLLLQALRESQSYLVEDLERSGSSGSSGSSGSSGSSMADKVLKEKRKLFIRSMGEKTINGLLDELLQTRVLNKEEMEKVKRENATVMDKTRALIDSVIPKGAQACQICITYICEEDSYLAGTLGLSADQTS
notes: ASC, CARD, residues 106-195; 5 x GSS linker, written out from '5XGSS'; caspase-1, CARD, residues 1-95; Tetramer of the fusion = octamer of CARDs; also called ASC^CARD-caspase-1^CARD fusion protein; ASC^CARD-CASP1^CARD; source: E. coli BL21 (DE3), purified (Ni-NTA, TEV cleavage, amylose flow-through, Superdex 200); not shown: His6, N-terminal, cleaved; MBP, N-terminal, cleaved
B4: CARD8-CT (UPA-CARD fragment of CARD8, S297-L537) (domain or fragment, human, UniProt Q9Y2G2-5 297-537, looked up)
chain: SLMGILLRIASGTRLSIPITSNTLIYYHPHPEDIKFHLYLVPSDALLTKAIDDEEDRFHGVRLQTSPPMEPLNFGSSYIVSNSANLKVMPKELKLSYRSPGEIQHFSKFYAGQMKEPIQLEITEKRHGTLVWDTEVKPVDLQLVAASAPPPFSGAAFVKENHRQLQARMGDLKGVLDDLQDNEVLTENEKELVEQEKTRQSKNEALLSMVEKKGDLALDVLFRSISERDPYLVSYLRQQNL
notes: CARD8, human, UPA-CARD fragment S297-L537 of the T60 isoform; numbers count on: the T60 isoform Q9Y2G2-5; Forms helical filaments; the purified filaments still held some uncleaved His-MBP-tagged subunits; Only the CARD is resolved in the map; also called CARD8^UPA-CARD; source: E. coli BL21 (DE3), purified (amylose resin, MBP-3C protease cleavage, Superose 6 void fraction); not shown: His, …
B5: His-MBP-3C-UPA-CARD of CARD8 (uncleaved MBP fusion of CARD8-CT) (domain or fragment, human, UniProt Q9Y2G2-5 297-537, looked up)
chain: B4 chain
notes: CARD8, human, UPA-CARD fragment S297-L537 of the T60 isoform; numbers count on: the T60 isoform Q9Y2G2-5; HRV 3C protease linker between MBP and UPA-CARD; modified pDB-His-MBP vector; also called MBP-fusion protein; MBP-CT fusion protein; source: E. coli BL21 (DE3), purified (amylose resin); not shown: His, N-terminal, kept; MBP, N-terminal, kept
B6: NLRP1-CT (UPA-CARD fragment of NLRP1, S1213-S1473) (domain or fragment, human, UniProt Q9C000-1 1213-1473, looked up)
chain: SPLGVLLKMIHNALRFIPVTSVVLLYHRVHPEEVTFHLYLIPSDCSIRKAIDDLEMKFQFVRIHKPPPLTPLYMGCRYTVSGSGSGMLEILPKELELCYRSPGEDQLFSEFYVGHLGSGIRLQVKDKKDETLVWEALVKPGDLMPATTLIPPARIAVPSPLDAPQLLHFVDQYREQLIARVTSVEVVLDKLHGQVLSQEQYERVLAENTRPSQMRKLFSLSQSWDRKCKDGLYQALKETHPHLIMELWEKGSKKGLLPLSS
notes: NLRP1, human, UPA-CARD fragment S1213-S1473, isoform 1 (Q9C000-1); Forms thick helical filaments of CARD dimers; the purified filaments still held some uncleaved His-MBP-tagged subunits; Only the CARD is resolved in the map; also called NLRP1^UPA-CARD; source: E. coli BL21 (DE3), purified (amylose resin, Superose 6, MBP-3C protease cleavage, Superose 6 void fraction); not shown: His, …
B7: His-MBP-3C-UPA-CARD of NLRP1 (uncleaved MBP fusion of NLRP1-CT) (domain or fragment, human, UniProt Q9C000-1 1213-1473, looked up)
chain: B6 chain
notes: NLRP1, human, UPA-CARD fragment S1213-S1473, isoform 1 (Q9C000-1); HRV 3C protease linker between MBP and UPA-CARD; modified pDB-His-MBP vector; also called MBP-fusion protein; MBP-CT fusion protein; source: E. coli BL21 (DE3), purified (amylose resin, Superose 6); not shown: His, N-terminal, kept; MBP, N-terminal, kept
B8: caspase-1^CARD (1-95) G20K (domain or fragment, UniProt P29466 1-95, looked up)
chain: MADKVLKEKRKLFIRSMGEKTINGLLDELLQTRVLNKEEMEKVKRENATVMDKTRALIDSVIPKGAQACQICITYICEEDSYLAGTLGLSADQTS
notes: caspase-1, CARD, residues 1-95; Stood in the experiment on one chain with ASC^CARD W169G through a 5 x GSS linker (fusion m9); also called CASP1^CARD; type IIb G20K mutant of caspase-1^CARD; source: E. coli BL21 (DE3), purified (Ni-NTA, TEV cleavage, amylose flow-through, Superdex 200), as part of the fusion m9

Assays:
[1] = target: B8; assay: cryo-EM structure; purified ASC^CARD-caspase-1^CARD octamer (tetramer of the fusion protein); single-particle reconstruction; conditions: both partners purified
[2] = target: the molecule itself; assay: as above
[3] = target: the molecule itself; assay: negative-stain EM of filaments formed in vitro; recombinant MBP-tagged protein cleaved with 3C protease, sample stained with 1% uranyl formate and imaged
[4] = target: the molecule itself; assay: SEC-MALS; Superdex 200 in 25 mM Tris-HCl pH 8.0, 150 mM NaCl, 2 mM DTT; three-angle light scattering and refractive index detectors
[5] = target: the molecule itself; assay: cryo-EM structure; purified CARD8 CT filaments (Superose 6 void fraction), A280 = 0.75; 25 mM Tris-HCl pH 7.5, 150 mM NaCl, 1 mM TCEP; helical reconstruction
[6] = target: B4; assay: SEC; after partial 3C cleavage, filaments recovered from the Superose 6 void fraction; SDS-PAGE of the fraction shows uncleaved MBP-tagged protein; conditions: both partners purified
[7] = target: the molecule itself; assay: SEC; amylose eluate of His-MBP-NLRP1-CT on Superose 6 in 25 mM Tris-HCl pH 7.5, 150 mM NaCl, 1 mM TCEP; a range of small oligomers
[8] = target: B6; assay: SEC; after partial 3C cleavage, filaments recovered from the Superose 6 void fraction; SDS-PAGE of the fraction shows uncleaved MBP-tagged protein; conditions: both partners purified

Binder: B1
- binding result [1]: binds
- binding result [2]: binds

Binder: B2
- binding result [3]: binds

Binder: B3
- stoichiometry N [4]: 4

Binder: B4
- binding result [5]: binds

Binder: B5
- binding result [6]: binds

Binder: B6
- binding result [3]: binds

Binder: B7
- binding result [7]: binds
- binding result [8]: binds

Binder: B8
- binding result [2]: binds
